Results published in patent US20130288305A1.

Legend:
Experiment in all cases: cell-based or functional assay
[1] = biological target: FGFR2-IIIb N550K expressed on FDCP-1 cells (human), P21802
[2] = biological target: wild type FGFR2-IIIb expressed on FDCP-1 cells (human), P21802
[3] = biological target: FGFR2-IIIb S252W expressed on FDCP-1 cells (human), P21802

B1: antibody 4B9 (antibody)
heavy: EVQLQQSGTVLARPGASVKMSCKTSGYTFTSYWMHWVKQRPGQGLEWIGAIYPGNSDTDYSQKFKGKATLTAVTSATTAYMELSSLTNEDSAVYYCSKFDYWGQGTTLTVSSAKTTPPSVYPLAPGSAAQTNSMVTLGCLVKGYFPEPVTVTWNSGSLSSGVHTFPAVLQSDLYTLSSSVTVPSSTWPSQTVTCNVAHPASSTKVDKKIVPRDCGCKPCICTVPEVSSVFIFPPKPKDVLTITLTPKVTCVVVDISKDDPEVQFSWFVDDVEVHTAQTQPREEQFNSTFRSVSELPIMHQDWLNGKEFKCRVNSAAFPAPIEKTISKTKGRPKAPQVYTIPPPKEQMAKDKVSLTCMITDFFPEDITVEWQWNGQPAENYKNTQPIMDTDGSYFVYSKLNVQKSNWEAGNTFTCSVLHEGLHNHHTEKSLSHSPGK
light: QIVLTQSPALMSASPGEKVTMTCSASSSVNYMYWYQQKPRSSPKPWIYLTSNLASGVPARFSGRGSGTSYSLTISSMEAEDAATYYCQQWSSNPYTFGGGTKLEIKRADAAPTVSIFPPSSEQLTSGGASVVCFLNNFYPRDINVKWKIDGSERQNGVLNSWTDQDSKDSTYSMSSTLTLTKDEYERHNSYTCEATHKTSTSPIVKSFNRNEC
IC50 of inhibition of cell proliferation (MTT assay) [1]: 8.1 nM | IC50 of inhibition of cell proliferation (MTT assay) [2]: 0.3 nM | IC50 of inhibition of cell proliferation (MTT assay) [3]: 3 nM
